Test results from paper PMC6520018.
Read-outs that look alike come from different tables or passages of the source.

Assays:
Assay in all cases: EMSA
AtALBA2 [1] = molecular target: T1, AtALBA2 (Arabidopsis thaliana, UniProt O22969 1-130)
T1 sequence: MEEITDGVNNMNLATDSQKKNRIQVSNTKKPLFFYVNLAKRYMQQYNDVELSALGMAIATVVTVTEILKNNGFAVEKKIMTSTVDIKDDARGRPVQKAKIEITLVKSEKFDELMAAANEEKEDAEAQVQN

AtALBA2 K30E = molecular target: T2, AtALBA2 K30E (Arabidopsis thaliana, UniProt O22969 1-130, K30E)
T2 sequence: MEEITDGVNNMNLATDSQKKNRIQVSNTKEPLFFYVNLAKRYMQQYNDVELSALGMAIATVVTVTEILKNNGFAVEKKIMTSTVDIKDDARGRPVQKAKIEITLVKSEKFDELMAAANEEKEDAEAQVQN

AtALBA2 [2] = molecular target: T1, AtALBA2; remark: listed apart in the source

Row | Binder | binding result (AtALBA2 [1]) | binding result (AtALBA2 K30E) | binding result (AtALBA2 [2])
1 | artificial R-loop (mixed) DNA 1: GCTCGCAAACTACTTAGATGTCATCCGCGAGG DNA 2: CCTCGCAAGCGGCGATGATGAGATTCGAAAGCGAGC RNA: UCGAAUCUCAUCAUCGCCGC | binds |  | 
2 | dsDNA (EMSA-DNA) (dsDNA) DNA 1: TCGAATCTCATCATCGCCGC DNA 2: GCGGCGATGATGAGATTCGA |  | no binding | binds
